Earlier results, collected in patent US10487153B2, “Carbonic anhydrase IX-specific antibodies and uses thereof” (National Research Council of Canada, priority 2015, dated 2019).

Target: T1, CA-IX (Homo sapiens, UniProt Q16790)
T1 construct: host or cells: patients' own tumour tissue (endogenous)
Conditions: >6-year span; compared to a placebo; cited from earlier work

Question: For “cG250: chimeric version of anti-CA-IX mAb G250, developed as a therapeutic antibody”, which “disease-free survival rate of patients” value is on record?
Answer: not improve the disease-free survival rate
